B1: Apt1-S double-stranded (1-18 / 19-37) (dsRNA)
RNA 1: GGGAUGGACGACCCACCA
RNA 2: CGGCGAGGUAUCCCAUCCC
B2: RDE (dsDNA)
DNA 1: GTCGTTTGCGGTTTGGGGAAAAAAAAAAAAAAAAA
DNA 2: TCCCCAAACCGCAAACGAC

Columns and labels:
Test in all cases: SPR
[1] = target: T1, AML1 Runt domain (UniProt Q01196 1-188)
[2] = target: AML1 Runt domain V170A (UniProt Q01196 1-188, V170A)
[3] = target: T1, AML1 Runt domain; remark: listed apart in the source

T1 sequence (Q01196 1-188): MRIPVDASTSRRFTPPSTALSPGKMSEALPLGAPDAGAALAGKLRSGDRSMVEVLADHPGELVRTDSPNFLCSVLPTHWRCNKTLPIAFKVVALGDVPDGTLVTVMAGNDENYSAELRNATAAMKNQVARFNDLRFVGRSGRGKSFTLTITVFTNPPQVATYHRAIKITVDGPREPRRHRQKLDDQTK
AML1 Runt domain V170A, sequence (Q01196 1-188 V170A): as the sequence (Q01196 1-188) above, with V170A counted along it

| Binder | binding result [3] | other results |
| --- | --- | --- |
| B1 |  | binding signal [1]: ~20 fold reduction in affinity vs Apt1-S |
| B2 |  | binding result [2]: binds; Kd [3]: 9.6 ± 0.2 nM |
| GGGAUGGACGACCCACCACGGCGAGGUAUCCCAUCCC (structured_RNA) [Apt1-S] |  | binding result [2]: binds; Kd [3]: 0.99 ± 0.02 nM |
| GGGAUGGACGACCCACGAAAGCGAGGUAUCCCAUCCC (structured_RNA) [Apt1-S GAAA loop] | binds |  |
| GGGAUGGACGACCCACUUUUGCGAGGUAUCCCAUCCC (structured_RNA) [Apt1-S UUUU loop] | binds |  |
| GGGAUGGACGACCCACCACGGCGUGGUAUCCCAUCCC (structured_RNA) [Apt1-S A24U] | binds |  |
| GGGAUGGACGACCCACCACGGCGCGGUAUCCCAUCCC (structured_RNA) [Apt1-S A24C] | binds |  |
| GGGAUGGACGAGCCACCACGGCGAGCUAUCCCAUCCC (structured_RNA) [Apt1-S C12G-G26C] | binds |  |
